Patent US9696316B2, “Conformationally dynamic peptides” (SYSTEM OF SYSTEMS ANALYTICS, INC., priority 2009, dated 2017)
Entries after “also recorded” stand apart in the source; their conditions may differ.

Tests used:
Format in all cases: binding
[1] = test system: fibrillar amyloid target protein; test: Signal gain on conformational change in the presence of fibrillar amyloid
Experimental: Peptide Probe 22 (SEQ ID NO:2, 2 μM) labeled at each terminus with pyrene is incubated in 0 to 80% TFE in tris buffer (10 mM Tris, pH 7.0) for 30 min. The reaction is measured by TECAN fluorimeter, and the excimer:monomer fluorescence ratio is recorded. […] When tested for the ability to undergo conformational change in the presence of a fibrillar amyloid target protein, Peptide 22 performs 2.6 times greater than the reference peptide (SEQ ID NO:1).

[2] = target: T1, Aβ1-42 fiber (Homo sapiens, UniProt P05067); test: Specificity assay, pyrene fluorescence; details: 100 nM peptide, water, 15 hours, 0-300 nN substrate
T1 construct: Aβ1-42 monomer; Aβ1-40 monomer; Aβ1-42 fiber; Aβ1-40 fiber
Experimental: (§1) Peptide 22 (100 nM) is incubated in water for 15 hours at room temperature with equimolar concentrations ([…]) of several potential Aβ substrates: Aβ42 oligomer (type 1); Aβ42 oligomer (type 2); Aβ1-42 monomer; Aβ1-40 monomer; Aβ1-42 fiber; Aβ1-40 fiber; bovine serum albumin (control substrate); and carbonic anhydrase (control substrate).

[3] = target: T2, Aβ1-40 fiber (Homo sapiens, UniProt P05067); test: Specificity assay, pyrene fluorescence; details: 100 nM peptide, water, 15 hours, 0-300 nN substrate
T2 construct: Aβ1-42 monomer; Aβ1-40 monomer; Aβ1-42 fiber; Aβ1-40 fiber
Experimental: as §1

[4] = target: T3, Aβ1-42 monomer (Homo sapiens, UniProt P05067); test: Specificity assay, pyrene fluorescence; details: 100 nM peptide, water, 15 hours, 0-300 nN substrate
T3 construct: Aβ1-42 monomer; Aβ1-40 monomer; Aβ1-42 fiber; Aβ1-40 fiber
Experimental: as §1

[5] = target: T4, Aβ1-40 monomer (Homo sapiens, UniProt P05067); test: Specificity assay, pyrene fluorescence; details: 100 nM peptide, water, 15 hours, 0-300 nN substrate
T4 construct: Aβ1-42 monomer; Aβ1-40 monomer; Aβ1-42 fiber; Aβ1-40 fiber
Experimental: as §1

[6] = target: T5, Aβ42 oligomer (Homo sapiens, UniProt P05067); test: CD analysis of peptide probe with target protein; details: 10 mM sodium phosphate pH 7.0, 3 hours
Description: The conformation of the peptide probe bound to the target protein can be assessed by CD analysis. […] The peptide alone is highly alpha helical (36%). Upon mixing of Peptide 38 with the target protein, the peptide undergoes a conformation shift that results in increased β-sheet conformation, and decreased α helix conformation. That is, the secondary structure of Peptide 38 is altered such that the proportion of a helix is halved (18%), while the proportion of β-sheet structure is enhanced from 20% to 31%. […] Circular dichroism (CD) analysis is used to determine the secondary structure of Peptide 22, synthetic Aβ42 oligomer, and a mixture thereof. Samples are incubated in 10 mM sodium phosphate (pH 7.0) for 3 hours at room temperature before measuring CD. For each sample, the relative ellipticity is evaluated from 190-260 nm. […] Each data set represents the average of three separate spectral scans.

[7] = target: biotinylated Aβ42 oligomers (Homo sapiens, UniProt P05067); test: In vitro affinity chromatography-based interaction assay (streptavidin beads); details: 4 μM probe
Experimental: In this assay, soluble peptide probes are combined with, for example, soluble target protein oligomers in an in vitro affinity chromatography-based interaction assay. For this example, target protein is labeled with an affinity molecule, such as biotin, and incubated with a labeled peptide probe. After incubation, the mixture is incubated with the capture moiety, such as streptavidin, on a support, for example a column or beads, such that the target protein is captured. After washing of unbound material, the support can be examined for detection of the labeled peptide probe, which would indicate the presence of bound target protein-peptide probe complexes on the support. Alternatively, the bound material may be eluted and then examined for detection of the labeled peptide probe. Again, detection of the labeled peptide probe would indicate the presence of target protein-peptide probe complexes in the eluant. FIGS. 5A and 15A illustrate an affinity chromatography assay using biotin-labeled target protein and streptavidin-coated beads. This type of assay is useful, for example, for assessing the efficacy of a given peptide probe. […] The beads are washed with PBS to remove unbound material and the captured material is analyzed by SDS-PAGE. […] […]

[8] = target: T5, Aβ42 oligomer; test: Aqueous Aβ oligomer assay, pyrene fluorescence
Description: The conformation of peptide probe bound to the target protein can also be detected by measuring pyrene fluorescence, on the peptide alone and in combination with the target protein. […] The excimer fluorescence associated with the β-sheet conformation has a different wavelength than the monomer fluorescence associated with the alpha-helix conformation, and the excimer:monomer fluorescence ratio is 9:1. […] The addition of Aβ42 oligomer target protein results in a dose-dependent shift of the excimer:monomer fluorescence ratio to 20:1 at the highest Aβ42 oligomer concentration (0.3 μM). This change in excimer:monomer fluorescence ratio reflects a corresponding conformational change in the peptide, that results in increased β-sheet conformation, and decreased α helix conformation.
An Aβ oligomer assay may be conducted in an aqueous solvent, such as water. […] Upon introduction of Aβ oligomer, the fluorescence profile shifts to primarily self-fluorescence (monomeric) (see FIG. 11), which is associated with reduced β-sheet structure, or increased alpha helix structure.
As discussed above, Peptide 22 (SEQ ID NO: 2) undergoes a conformational change upon interaction with Aβ oligomer. FIG. 11 illustrates the fluorescence spectra for Peptide 22 labeled at each terminus with pyrene and incubated in aqueous conditions for several hours at room temperature in 10 mM Hepes (pH 7.0). […] (solid line=Time 0; dashed line=3 hours; dotted line=18 hours).
as §1
With reference to FIG. 13A, Peptide 22 (70 nM) is incubated with […] synthetic Aβ42 oligomer at 25 C, and fluorescence emission spectra is recorded after 3 hours incubation. […] (solid line—no Aβ42 oligomer; dashed/dot line—30 nN Aβ42 oligomer; large dashed line—100 nN Aβ42 oligomer; small dashed line—300 nN Aβ42 oligomer)

[9] = test system: carbonic anhydrase; test: Specificity assay, pyrene fluorescence (control substrate); details: 100 nM peptide, water, 15 hours, 0-300 nN substrate
Experimental: as §1

[10] = target: bovine serum albumin (Bos taurus, UniProt P02769); test: as above; details: 100 nM peptide, water, 15 hours, 0-300 nN substrate
Experimental: as §1

T5 sequence (P05067 672-713 limits assumed): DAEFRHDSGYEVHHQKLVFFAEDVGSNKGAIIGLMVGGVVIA
T3 sequence (P05067 672-713 limits assumed): as above
T2 sequence (P05067 672-711 limits assumed): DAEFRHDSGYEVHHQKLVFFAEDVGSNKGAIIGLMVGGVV
Chain of bovine serum albumin (P02769 25-607): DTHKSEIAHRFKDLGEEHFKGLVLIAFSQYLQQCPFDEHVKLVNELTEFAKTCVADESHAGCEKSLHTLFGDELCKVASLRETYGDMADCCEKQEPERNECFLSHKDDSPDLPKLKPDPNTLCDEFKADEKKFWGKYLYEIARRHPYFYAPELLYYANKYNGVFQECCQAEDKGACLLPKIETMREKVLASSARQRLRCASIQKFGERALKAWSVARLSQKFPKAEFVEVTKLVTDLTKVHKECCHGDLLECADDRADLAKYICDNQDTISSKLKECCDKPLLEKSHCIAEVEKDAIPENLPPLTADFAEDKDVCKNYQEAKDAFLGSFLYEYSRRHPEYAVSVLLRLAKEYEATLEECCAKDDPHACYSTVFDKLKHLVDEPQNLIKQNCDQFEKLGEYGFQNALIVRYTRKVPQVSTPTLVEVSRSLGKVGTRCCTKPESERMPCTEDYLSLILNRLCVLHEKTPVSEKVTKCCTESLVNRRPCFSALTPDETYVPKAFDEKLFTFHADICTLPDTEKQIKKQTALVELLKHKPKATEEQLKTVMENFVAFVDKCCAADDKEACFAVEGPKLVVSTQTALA
T1 sequence (P05067 672-713 limits assumed): as the sequence (P05067 672-713 limits assumed) above
Chain of biotinylated Aβ42 oligomers (P05067 672-713 limits assumed): as above
T4 sequence (P05067 672-711 limits assumed): as the sequence (P05067 672-711 limits assumed) above

KLVFFAEDVGSNKHAIIELMK (KLVFFAEDVGSNKHAIIELMK) [Peptide 22, Salt bridge at G29H and G33E]
maximal signal gain in the presence of fibrillar amyloid target protein relative to the reference peptide (SEQ ID NO:1) [1]: about 2.6 times
fluorescence response to Aβ42 fibers [2]: some dose-dependent increase in monomer fluorescence
fluorescence response to Aβ40 fibers [3]: no change in fluorescence; also recorded: slight fluorescence response
fluorescence response to Aβ42 monomer [4]: no change in fluorescence; also recorded: slight fluorescence response
fluorescence response to Aβ40 monomer [5]: no change in fluorescence
β sheet secondary structure (CD) ([6]; 4 μM peptide alone, room temperature): 36%
β sheet secondary structure (CD) ([6]; 4 μM peptide incubated with 33 nM synthetic Aβ42 oligomer): 43%
capture of labeled peptide probe with biotinylated Aβ42 oligomer on streptavidin beads (SDS-PAGE) [7]: directly binds to biotinylated Aβ42 oligomer
pyrene monomer (self) fluorescence (370-420 nm) versus Aβ42 oligomer concentration ([8]; 70 nM peptide, 0, 30, 100, 300 nM synthetic Aβ42 oligomer, 25 C, 3 hours (FIG. 13A)): increases with Aβ42 oligomer concentration in a dose-dependent manner
fluorescence over time in the absence of oligomer ([8]; 10 mM Hepes pH 7.0, room temperature, 0, 3, 18 hours (FIG. 11)): stable over time
reactivity with Aβ42 oligomers (transition from pyrene excimer fluorescence to pyrene self-fluorescence) ([8]; aqueous assay): react with Aβ42 oligomers
preferential binding by state of self-aggregation of Aβ protein ([8]; versus monomers, fibers and control proteins): preferentially binds to Aβ protein in the form of soluble Aβ oligomers
fluorescence response to Anhydrase control [9]: no change in fluorescence
fluorescence response to BSA control [10]: no change in fluorescence
